Biological target: 重组KRAS突变体蛋白 (KRAS Mut)
Experiment: indirect ELISA, KRAS Mut coated at 1 μg/mL, antibody diluted 1:10^3 to 1:10^6, HRP goat anti-mouse, OD450

Chain of 重组KRAS突变体蛋白 (KRAS Mut) (chain, as listed by the source limits assumed): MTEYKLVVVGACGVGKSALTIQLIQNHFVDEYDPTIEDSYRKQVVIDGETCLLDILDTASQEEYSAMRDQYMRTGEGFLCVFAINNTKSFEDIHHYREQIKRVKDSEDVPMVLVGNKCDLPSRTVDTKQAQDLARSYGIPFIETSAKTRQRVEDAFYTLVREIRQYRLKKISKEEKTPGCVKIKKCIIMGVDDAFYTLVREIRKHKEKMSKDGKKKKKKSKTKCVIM

效价 (ELISA titer) (dilution factor (1:x)): 100000
B1: 抗KRAS突变体单克隆抗体 KRAS Mut mAb (antibody, V domains shown)
VH: QIQLQESGPGLVKPSQSLSLTCTVTGYSITSDYAWNWIRQFPGNKLEWMGYINYSGSTSYNPSLKSRISITRDTSKNQFFLQLISVTSEDTATYYCAGSGYVRGFAYWGQGTLVTVSA
VL: DICKTQSHKFMSTSVGDRVSITCKASQDVGTAVAWYQQKPGQSPKLLIYWASTRHTGVPDRFTGSESGTDFTLTISNVQSEDLADYFCQQYSSYPYTFGGGTKLEIKR
